Experiment in all cases: IEDB peptide-MHC binding, purified MHC/competitive/radioactivity; filed as Kd, often an IC50 or EC50 that approximates it; ≥ and ≤ were set here for values at or beyond the usual limits of such assays
The target in assay [1] is HLA-A*02:06.
The target in assay [2] is HLA-A*02:03.
For assay [3], the target named is HLA-A*02:02.
Assay [4] deals with HLA-A*33:01.
In assay [5] the target is HLA-A*11:01.
Assay [6] addresses HLA-A*03:01.
The target of assay [7] is HLA-A*68:01.
For assay [8], the target named is HLA-A*31:01.
[9] abbreviates: source organism: Dengue virus 3 Martinique/1243/1999.
Setting [10] is: source organism: SARS coronavirus Tor2.
Where [11] appears, read: source organism: Lymphocytic choriomeningitis virus (strain Armstrong).
Setting [12] is: source organism: Dengue virus 4 Dominica/814669/1981.
Where [13] appears, read: source organism: Vaccinia virus WR.
[14] abbreviates: source organism: Dengue virus 1 Brazil/97-11/1997.
Setting [15] is: source organism: Dengue virus 4 Philippines/H241/1956.
The mark [16] stands for this setting: source organism: Vaccinia virus Copenhagen.

One may read the Kd as the equilibrium constant for the complex coming apart. Consider AIVLEFFMMV, for which the Kd in assay [1] (setting [9]) stood at 7.87 nM.
As to ALDGVLSTFV, the values for the Kd in assay [2] (setting [10]), in assay [3] (setting [10]) and in assay [1] (setting [10]) were 27.9 nM, 3.26 nM and 140 nM, respectively.
For the sequence ALMDCIIFES, the Kd in assay [2] (setting [11]) was determined as 16.4 nM; in assay [3] (setting [11]), 2.13 nM; in assay [1] (setting [11]) it was 12.8 nM.
Regarding ALVLLILMTA, the Kd in assay [2] (setting [10]) amounted to 50.7 nM; in assay [3] (setting [10]) it was 67.2 nM; in assay [1] (setting [10]) it was 61.4 nM.
In the case of AMHSALAGA, the Kd in assay [2] (setting [12]) is 8.58 nM.
As for CTINVNSLAL, the Kd in assay [2] (setting [13]) turned out to be 1040 nM; in assay [3] (setting [13]), 494 nM; in assay [1] (setting [13]), 216 nM.
Taken in the same sequence, the figures for CTMERTNDL were 25.5 nM, 36.2 nM and 95.7 nM.
Taken in the same sequence, the figures for CVDIFTEGKI were 17500 nM, no less than 70000 nM and no less than 20900 nM.
As to DIISSKQYPA, the Kd in assay [2] (setting [13]) is 2430 nM; in assay [3] (setting [13]), 552 nM; in assay [1] (setting [13]), 3100 nM.
Taken in the same sequence, the figures for DIPTFNSLNT were 16600 nM, 2020 nM and 45.3 nM.
As to DLEALKKETI, the Kd in assay [1] (source organism: Homo sapiens) was no less than 97400 nM.
As to DTMRIYCSL, the Kd in assay [2] (setting [13]) is 5460 nM; in assay [3] (setting [13]) it was 5840 nM; in assay [1] (setting [13]) it was 2920 nM.
Turning to EAAAATCALV, the Kd stood at 248 nM in assay [2] (setting [13]), 1810 nM in assay [3] (setting [13]) and 60.1 nM in assay [1] (setting [13]).
For EIMDKEQLL the same measures were 427 nM, 183 nM and no less than 26500 nM.
Consider ELAAHQKKIL, for which the Kd in assay [2] (source organism: Homo sapiens) is 19000 nM.
For ELIDVLKTRL, the Kd in assay [2] (setting [13]) was determined as 118 nM; in assay [3] (setting [13]), 262 nM; in assay [1] (setting [13]), 1990 nM.
For ELTTVFIKYV the same measures were 719 nM, 2790 nM and 463 nM.
Taken in the same sequence, the figures for ETIQKDINIT were 10.1 nM, 354 nM and 112 nM.
For FAISYCRAFI the same measures were 38.3 nM, 105 nM and 34.5 nM.
For FKMRPMFAV, the Kd in assay [1] (setting [14]) amounted to 55.5 nM.
Consider FLDWIKDIM, for which the Kd stood at 297 nM in assay [2] (setting [13]), 0.78 nM in assay [3] (setting [13]) and 162 nM in assay [1] (setting [13]).
On to FMTATPPGTA, for which, in assay [2] (setting [9]), the Kd came out at 2.17 nM.
For FQRALIFIL, the Kd in assay [1] (source organism: Dengue virus 2 Jamaica/1409/1983) was 16.9 nM.
Consider FVATFRDML, for which the Kd was determined as 206 nM in assay [2] (setting [13]), 2350 nM in assay [3] (setting [13]) and 487 nM in assay [1] (setting [13]).
ILNAHKDGV: the Kd in assay [2] (setting [12]) came out at 329 nM.
In the case of KLRDSYTQV, the Kd in assay [2] (source organism: Dengue virus 1 Nauru/West Pac/1974) is 16 nM.
In the case of KVDNFTMGV, the Kd in assay [1] (setting [9]) turned out to be 4.24 nM.
Still for that read-out and setting: the same measure for LMLVTPSMTM: 974 nM.
As for NLKYSVIVTV, in assay [2] (setting [14]), the Kd is 5.6 nM.
Take RVILAGPIPV: the Kd in assay [2] (setting [15]) was determined as 8.4 nM; in assay [1] (setting [15]) it was 33.5 nM.
Consider SVKGLTPSK, for which the dissociation constant (Kd) was 9270 nM in assay [4] (setting [10]); 13.2 nM in assay [5] (setting [10]); 7.56 nM in assay [6] (setting [10]); 180 nM in assay [7] (setting [10]); 171 nM in assay [8] (setting [10]).
For the sequence SVLCVKKFY, the Kd in assay [4] (setting [13]) stood at 12900 nM; in assay [5] (setting [13]) it was 372 nM; in assay [6] (setting [13]), 13300 nM; in assay [7] (setting [13]), 2100 nM; in assay [8] (setting [13]), 7980 nM.
With SVLDIISSK, the Kd in assay [4] (setting [16]) was 4410 nM; in assay [5] (setting [16]), 6.72 nM; in assay [6] (setting [16]) it was 23.4 nM; in assay [7] (setting [16]) it was 184 nM; in assay [8] (setting [16]), 1670 nM.
As for SYQYLIIQNR, the Kd in assay [4] (setting [11]) is 54.3 nM; in assay [5] (setting [11]), no less than 69700 nM; in assay [6] (setting [11]), 9780 nM; in assay [7] (setting [11]), 1690 nM; in assay [8] (setting [11]) it was 0.953 nM.
For TAVAKCNVNH the same measures were no less than 66800 nM, no less than 69700 nM, no less than 70000 nM, no less than 65300 nM and no less than 70000 nM.
As to TIRHMWSVVY, the Kd in assay [4] (setting [13]) was no less than 70000 nM; in assay [5] (setting [13]), 3080 nM; in assay [6] (setting [13]) it was 294 nM; in assay [7] (setting [13]), 2860 nM; in assay [8] (setting [13]) it was no less than 57000 nM.
In the case of TLISLNSMY, the Kd was 15000 nM in assay [4] (setting [13]); 282 nM in assay [5] (setting [13]); 155 nM in assay [6] (setting [13]); 46.8 nM in assay [7] (setting [13]); 8060 nM in assay [8] (setting [13]).
As to TLYVKALTK, the Kd is 15500 nM in assay [4] (setting [13]); 23.9 nM in assay [5] (setting [13]); 1.93 nM in assay [6] (setting [13]); 185 nM in assay [7] (setting [13]); 2920 nM in assay [8] (setting [13]).
In the case of TQHGTILIKV, in assay [1] (setting [9]), the equilibrium dissociation constant (Kd) came to 526 nM.
With TQIFEVYWY, the Kd in assay [4] (setting [13]) came out at 10900 nM; in assay [5] (setting [13]) it was 353 nM; in assay [6] (setting [13]) it was 1850 nM; in assay [7] (setting [13]), 733 nM; in assay [8] (setting [13]), 3800 nM.
Taken in the same sequence, the figures for TSSFREKSR were 844 nM, 5750 nM, no less than 65000 nM, 132 nM and 132 nM.
Taken in the same sequence, the figures for TSVDIETAIR were 1440 nM, 581 nM, 2980 nM, 1.35 nM and 922 nM.
On to TVVIGTSKFY, for which the dissociation constant (Kd) was 1240 nM in assay [4] (setting [10]); 809 nM in assay [5] (setting [10]); 1100 nM in assay [6] (setting [10]); 1500 nM in assay [7] (setting [10]); 1860 nM in assay [8] (setting [10]).
As for TYLGPLSCK, the dissociation constant (Kd) in assay [4] (setting [11]) was found to be 154 nM; in assay [5] (setting [11]), 21.3 nM; in assay [6] (setting [11]), 165 nM; in assay [7] (setting [11]), 375 nM; in assay [8] (setting [11]), 1690 nM.
With VINAPIKEFK, the Kd in assay [4] (setting [13]) is 83.8 nM; in assay [5] (setting [13]), 1.31 nM; in assay [6] (setting [13]) it was 4.87 nM; in assay [7] (setting [13]), 6.75 nM; in assay [8] (setting [13]), 227 nM.
On to VMAFIAFLR, for which the Kd was 4.68 nM in assay [4] (setting [14]); 171 nM in assay [5] (setting [14]); 38.5 nM in assay [6] (setting [14]); 4.51 nM in assay [7] (setting [14]); 1.33 nM in assay [8] (setting [14]).
Regarding VSLSAYIIR, the Kd was 4000 nM in assay [4] (setting [13]); 1110 nM in assay [5] (setting [13]); 8560 nM in assay [6] (setting [13]); 3310 nM in assay [7] (setting [13]); 40.2 nM in assay [8] (setting [13]).
For VSMTYLYNK the same measures were 806 nM, 1.36 nM, 72.5 nM, 82.7 nM and 2.76 nM.
Regarding VTLAILTALR, the Kd in assay [4] (setting [10]) is 310 nM; in assay [5] (setting [10]) it was 149 nM; in assay [6] (setting [10]), 218 nM; in assay [7] (setting [10]), 14.1 nM; in assay [8] (setting [10]), 13.4 nM.
For VTTIMFLAR the same measures were 167 nM, 24.6 nM, 329 nM, 84.6 nM and 45.4 nM.
Taken in the same sequence, the figures for WFFNNYLRK were 894 nM, 81.8 nM, 403 nM, 391 nM and 3880 nM.
Take YANCSSISIK: the Kd in assay [4] (setting [13]) stood at 18100 nM; in assay [5] (setting [13]), 115 nM; in assay [6] (setting [13]), 452 nM; in assay [7] (setting [13]), 51.7 nM; in assay [8] (setting [13]), 4310 nM.
As for YSKLTKDRK, the dissociation constant (Kd) is no less than 23900 nM in assay [4] (setting [13]); 4850 nM in assay [5] (setting [13]); no less than 78000 nM in assay [6] (setting [13]); 52.3 nM in assay [7] (setting [13]); 4320 nM in assay [8] (setting [13]).
Turning to YVLGVFLRKL, the Kd in assay [1] (setting [12]) is 81.5 nM.

The record behind these values is the Immune Epitope Database (IEDB).
